In the supplement of paper PMC9112550, “Optimization of the antimicrobial peptide Bac7 by deep mutational scanning” (BMC Biology, 2022):

Test system: Escherichia coli TOP10
Test: shrunken log2 fold change of peptide-encoding DNA abundance (4.5 h post-induction vs induction); higher = less antimicrobial activity (less host growth inhibition)
Details: time post-induction: 4.5 h; library: site-saturation at positions 5, 18, 19, 20
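Also: peptides expressed intracellularly from a pBAD plasmid library in pooled LB shake-flask culture, induced with 0.3% L-arabinose, DNA abundance read by NGS, three biological replicates, DESeq2 with apeglm shrinkage.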

Sequence | shrunken log2 fold change
RRIRDRPPRLPRPRPRPHGPPRP | 0.0119
RRIRQRPPRLPRPRPRPLLYPRP | -0.382
RRIRPRPPRLPRPRPRPWFMPRP | -0.18
RRIRDRPPRLPRPRPRPYTLPRP | -0.153
RRIRGRPPRLPRPRPRPMKAPRP | 0.231
RRIRLRPPRLPRPRPRPECKPRP | 0.0726
RRIRHRPPRLPRPRPRPVISPRP | -0.199
RRIRRRPPRLPRPRPRPHPKPRP | 0.474
RRIRQRPPRLPRPRPRPNPNPRP | -0.0129
RRIRDRPPRLPRPRPRPVTGPRP | 0.148
RRIRRRPPRLPRPRPRPAEQPRP | 0.275
RRIRGRPPRLPRPRPRPANRPRP | 0.0838
RRIRDRPPRLPRPRPRPLYMPRP | 0.383
RRIRNRPPRLPRPRPRPENQPRP | 0.216
RRIRNRPPRLPRPRPRPINHPRP | -0.705
RRIRIRPPRLPRPRPRPCAAPRP | -0.0041
RRIRNRPPRLPRPRPRPESWPRP | 0.362
RRIRGRPPRLPRPRPRPITYPRP | 0.265
RRIRKRPPRLPRPRPRPFWLPRP | 0.341
RRIRIRPPRLPRPRPRPSKMPRP | -1.18
RRIRGRPPRLPRPRPRPIMYPRP | 0.0639
RRIRIRPPRLPRPRPRPPHRPRP | -0.144
RRIRLRPPRLPRPRPRPPWLPRP | 0.439
RRIRYRPPRLPRPRPRPGPNPRP | 0.205
RRIRHRPPRLPRPRPRPQDQPRP | 0.0969

Sequence | shrunken log2 fold change
RRIRTRPPRLPRPRPRPAWHPRP | 0.282
RRIRARPPRLPRPRPRPAHEPRP | 0.128
RRIRHRPPRLPRPRPRPCFCPRP | -0.226
RRIRIRPPRLPRPRPRPELSPRP | -0.476
RRIRKRPPRLPRPRPRPMREPRP | 1.4
RRIRPRPPRLPRPRPRPTSIPRP | -0.375
RRIRTRPPRLPRPRPRPNMKPRP | -0.526
RRIRTRPPRLPRPRPRPGTYPRP | 0.0862
RRIRRRPPRLPRPRPRPMYEPRP | -0.034
RRIRFRPPRLPRPRPRPNVMPRP | -0.166
RRIRARPPRLPRPRPRPFDGPRP | -0.22
RRIRGRPPRLPRPRPRPETFPRP | 1.08
RRIRARPPRLPRPRPRPFSIPRP | 0.111
RRIRVRPPRLPRPRPRPTGYPRP | -0.239
RRIRHRPPRLPRPRPRPAVQPRP | -0.0994
RRIRQRPPRLPRPRPRPCKCPRP | -0.000687
RRIRGRPPRLPRPRPRPYHEPRP | 0.182
RRIRMRPPRLPRPRPRPHFLPRP | -0.235
RRIRERPPRLPRPRPRPDFGPRP | -0.0271
RRIRTRPPRLPRPRPRPPCHPRP | -0.164
RRIRHRPPRLPRPRPRPSDSPRP | -0.0454
RRIRTRPPRLPRPRPRPYGCPRP | -0.00664
RRIRLRPPRLPRPRPRPHPNPRP | -0.247
RRIRKRPPRLPRPRPRPMHNPRP | -0.136
RRIRARPPRLPRPRPRPSMPPRP | -0.176

Sequence | shrunken log2 fold change
RRIRYRPPRLPRPRPRPDGAPRP | -0.0116
RRIRLRPPRLPRPRPRPRWCPRP | -0.0806
RRIRTRPPRLPRPRPRPWFRPRP | -0.128
RRIRSRPPRLPRPRPRPPRCPRP | 0.218
RRIRNRPPRLPRPRPRPYGDPRP | -1.01
RRIRSRPPRLPRPRPRPHKTPRP | -0.258
RRIRKRPPRLPRPRPRPGENPRP | 0.318
RRIRDRPPRLPRPRPRPESDPRP | 0.000356
RRIRPRPPRLPRPRPRPPQKPRP | 0.19
RRIRPRPPRLPRPRPRPDSFPRP | -0.0889
RRIRPRPPRLPRPRPRPQWMPRP | 0.00643
RRIRCRPPRLPRPRPRPWIMPRP | -0.275
RRIRKRPPRLPRPRPRPEAAPRP | 1.8
RRIRSRPPRLPRPRPRPCFFPRP | -0.248
RRIRARPPRLPRPRPRPQEIPRP | 0.107
RRIRYRPPRLPRPRPRPMYFPRP | -0.48
RRIRYRPPRLPRPRPRPEFKPRP | 0.0136
RRIRIRPPRLPRPRPRPEPNPRP | -0.0783
RRIRWRPPRLPRPRPRPNAAPRP | 0.81
RRIRHRPPRLPRPRPRPFNIPRP | 0.0518
RRIRWRPPRLPRPRPRPSFVPRP | -0.284
RRIRFRPPRLPRPRPRPTTFPRP | -0.388
RRIRLRPPRLPRPRPRPDEAPRP | 0.189
RRIRYRPPRLPRPRPRPLGSPRP | -0.651
RRIRERPPRLPRPRPRPYHGPRP | -0.47
